This note sets out measurements from IntAct's records for PubMed 23949442.

B1: SNARE-associated protein Snapin (Homo sapiens), O95295 (parent)
chain: MAGAGSAAVSGAGTPVAGPTGRDLFAEGLLEFLRPAVQQLDSHVHAVRESQVELREQIDNLATELCRINEDQKVALDLDPYVKKLLNARRRVVLVNNILQNAQERLRRLNHSVAKETARRRAMLDSGIYPPGSPGK

This experiment covers variants of B1. Particulars: with snp25_rat Snap25, P60881.
Chain of snp25_rat Snap25, P60881 (P60881 whole entry, looked up): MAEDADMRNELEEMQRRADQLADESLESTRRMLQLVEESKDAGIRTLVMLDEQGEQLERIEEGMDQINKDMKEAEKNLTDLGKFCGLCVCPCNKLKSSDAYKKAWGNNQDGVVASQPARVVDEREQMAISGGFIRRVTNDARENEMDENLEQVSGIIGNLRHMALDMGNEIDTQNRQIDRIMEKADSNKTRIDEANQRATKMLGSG
Consider T117D, for which the “effect of a mutation on the interaction” value is given as “decreasing interaction”.
